From PMC6175577, “BRCT domains of the DNA damage checkpoint proteins TOPBP1/Rad4 display distinct specificities for phosphopeptide ligands” (eLife, 2018)

Columns and labels:
[1] = molecular target: RAD9 pS387 (Homo sapiens) (UniProt Q99638); conditions: cited from earlier work
[2] = molecular target: RHNO1 pT202 fluorescein-labelled phosphopeptide (human); assay: fluorescence polarisation; fluorescein-labelled peptide at 200 nM, increasing concentrations of recombinant protein; room temperature; 25 mM HEPES pH 7.5, 150 mM NaCl, 1 mM EDTA, 0.25 mM TCEP, 0.02% Tween-20; one site-specific binding model
TOPBP1 BRCT0,1,2 = TOPBP1 BRCT0,1,2 (UniProt Q92547); assay: fluorescence polarisation titration; conditions: reference: pT202 peptide, untreated; sites T202

Chain of RAD9 pS387 (Homo sapiens) (Q99638 whole entry): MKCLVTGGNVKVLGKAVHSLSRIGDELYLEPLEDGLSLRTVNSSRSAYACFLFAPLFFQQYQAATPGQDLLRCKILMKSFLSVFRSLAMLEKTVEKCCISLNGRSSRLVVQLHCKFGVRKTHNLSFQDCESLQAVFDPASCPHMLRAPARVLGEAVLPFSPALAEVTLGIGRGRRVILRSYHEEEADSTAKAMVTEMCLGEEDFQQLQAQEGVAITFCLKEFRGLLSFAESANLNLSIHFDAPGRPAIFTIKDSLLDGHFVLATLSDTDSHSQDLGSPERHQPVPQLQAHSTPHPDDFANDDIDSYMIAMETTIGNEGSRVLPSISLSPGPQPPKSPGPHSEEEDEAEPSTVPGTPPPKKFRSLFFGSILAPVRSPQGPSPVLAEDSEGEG
Chain of TOPBP1 BRCT1 (Q92547 98-192): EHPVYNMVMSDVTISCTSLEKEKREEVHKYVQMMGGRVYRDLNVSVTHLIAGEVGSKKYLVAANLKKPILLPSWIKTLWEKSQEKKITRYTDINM

TOPBP1 BRCT1 (from UniProt Q92547)
Kd [1]: 2.1 µM

TOPBP1-BRCT0,1,2 segment, wild type (recombinant, fluorescence polarisation) (domain or fragment)
fold tighter binding than RAD9-pS387 [2]: 10 fold

RHNO1 (from UniProt Q9BSD3) λ-phosphatase-dephosphorylated peptide
binding against the reference (TOPBP1 BRCT0,1,2): lost
